Results on 16 molecules are retold here after patent EP4772193A1 (Teijin Pharma Limited, dated 2026).

Assay [1] has as its target T1, recombinant human soluble gpNMB (recombinant human gpNMB-FLAG-His) (human, UniProt Q14956 23-498).
T1 sequence: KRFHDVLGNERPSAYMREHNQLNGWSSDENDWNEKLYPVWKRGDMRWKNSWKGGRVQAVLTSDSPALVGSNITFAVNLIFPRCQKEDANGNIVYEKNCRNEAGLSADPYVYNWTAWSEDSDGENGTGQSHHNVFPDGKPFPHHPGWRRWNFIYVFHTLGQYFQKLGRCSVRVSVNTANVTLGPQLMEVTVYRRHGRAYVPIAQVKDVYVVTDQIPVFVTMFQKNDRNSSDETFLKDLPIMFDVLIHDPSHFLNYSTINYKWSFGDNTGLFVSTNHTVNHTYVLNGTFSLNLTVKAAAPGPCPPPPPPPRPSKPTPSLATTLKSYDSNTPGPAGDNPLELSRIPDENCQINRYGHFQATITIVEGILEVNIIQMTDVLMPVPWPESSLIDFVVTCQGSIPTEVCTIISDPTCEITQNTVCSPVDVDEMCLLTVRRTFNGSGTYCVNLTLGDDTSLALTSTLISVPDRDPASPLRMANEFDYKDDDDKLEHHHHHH
In words: antigen ELISA. On the technique in general: ELISA stands for enzyme-linked immunosorbent assay.

Assay [2] has as its target T1, recombinant human soluble gpNMB …. In words: antigen ELISA, vs hGPN06-1_H1L1.
In assay [3] the target is T2, human gpNMB (Human Osteoactivin, His-tag, AcroBioSystems) (human, UniProt Q14956-2 23-486, limits assumed).
T2 sequence (looked up): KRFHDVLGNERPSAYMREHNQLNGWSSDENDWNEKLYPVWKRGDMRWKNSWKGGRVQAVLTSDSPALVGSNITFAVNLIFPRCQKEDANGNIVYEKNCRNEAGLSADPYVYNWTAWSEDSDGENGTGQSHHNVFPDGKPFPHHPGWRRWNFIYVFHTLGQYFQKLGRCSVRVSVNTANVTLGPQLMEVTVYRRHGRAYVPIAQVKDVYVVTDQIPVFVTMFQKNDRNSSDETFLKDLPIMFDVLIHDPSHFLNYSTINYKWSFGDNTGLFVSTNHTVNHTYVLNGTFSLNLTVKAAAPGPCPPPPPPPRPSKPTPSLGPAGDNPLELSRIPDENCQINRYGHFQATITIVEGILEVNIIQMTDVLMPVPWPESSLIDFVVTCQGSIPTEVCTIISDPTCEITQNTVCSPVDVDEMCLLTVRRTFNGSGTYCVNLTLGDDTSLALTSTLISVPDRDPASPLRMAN
Put plainly: SPR Biacore 8K, antibody captured on protein A, gpNMB as analyte. For orientation: Surface plasmon resonance follows binding to a sensor surface in real time, without labels.

B1: hGPN06-1_H1L1 VH D31A (antibody, V domains shown)
VH: QVQLVQSGAEVKKPGASVKVSCKASGYTFTANWMGWVKQRPGQGLEWIGAIDPSDSFTNYNQNFKGRVTMTVDTSISTAYMELSRLRSDDSAVYFCTRSGYYGSPKLGGDYWGQGTLVTVSS
VL: EIVLTQSPSSLSASVGDRVTITCSASSSISYMHWYQQKSGTAPKLLIYSTSNLASGVPSRFSGSGSGTDFTFTISSLQPEDAATYYCHQWNSYPCTFGGGTKLEIK
For B1, the EC50 in assay [1] was 0.515 nM. In addition, the Relative binding activity in assay [2] was found to be 1.26.

B2: hGPN06-1_H1L1 VH F29A (antibody, V domains shown)
VH: QVQLVQSGAEVKKPGASVKVSCKASGYTATDNWMGWVKQRPGQGLEWIGAIDPSDSFTNYNQNFKGRVTMTVDTSISTAYMELSRLRSDDSAVYFCTRSGYYGSPKLGGDYWGQGTLVTVSS
VL: EIVLTQSPSSLSASVGDRVTITCSASSSISYMHWYQQKSGTAPKLLIYSTSNLASGVPSRFSGSGSGTDFTFTISSLQPEDAATYYCHQWNSYPCTFGGGTKLEIK
For the molecule B2, in assay [1], the EC50 worked out at 4.8 nM. Further, the Relative binding activity in assay [2] amounted to 0.54.

B3: hGPN06-1_H1L1 VH K65A (antibody, V domains shown)
VH: QVQLVQSGAEVKKPGASVKVSCKASGYTFTDNWMGWVKQRPGQGLEWIGAIDPSDSFTNYNQNFAGRVTMTVDTSISTAYMELSRLRSDDSAVYFCTRSGYYGSPKLGGDYWGQGTLVTVSS
VL: EIVLTQSPSSLSASVGDRVTITCSASSSISYMHWYQQKSGTAPKLLIYSTSNLASGVPSRFSGSGSGTDFTFTISSLQPEDAATYYCHQWNSYPCTFGGGTKLEIK
In the case of B3, in assay [1], the EC50 came out at 0.406 nM. For the same molecule, in assay [2], the Relative binding activity was 1.1.

B4: hGPN06-1_H1L1 VH G35A (antibody, V domains shown)
VH: QVQLVQSGAEVKKPGASVKVSCKASGYTFTDNWMAWVKQRPGQGLEWIGAIDPSDSFTNYNQNFKGRVTMTVDTSISTAYMELSRLRSDDSAVYFCTRSGYYGSPKLGGDYWGQGTLVTVSS
VL: EIVLTQSPSSLSASVGDRVTITCSASSSISYMHWYQQKSGTAPKLLIYSTSNLASGVPSRFSGSGSGTDFTFTISSLQPEDAATYYCHQWNSYPCTFGGGTKLEIK
As to B4, the EC50 in assay [1] was found to be 3.55 nM. The Relative binding activity in assay [2] was 1.4.

B5: hGPN06-1_H1L1 VH F57A (antibody, V domains shown)
VH: QVQLVQSGAEVKKPGASVKVSCKASGYTFTDNWMGWVKQRPGQGLEWIGAIDPSDSATNYNQNFKGRVTMTVDTSISTAYMELSRLRSDDSAVYFCTRSGYYGSPKLGGDYWGQGTLVTVSS
VL: EIVLTQSPSSLSASVGDRVTITCSASSSISYMHWYQQKSGTAPKLLIYSTSNLASGVPSRFSGSGSGTDFTFTISSLQPEDAATYYCHQWNSYPCTFGGGTKLEIK
With B5, in assay [1], the EC50 stood at 32.5 nM. The Relative binding activity in assay [2] came to 0.09.

B6: hGPN06-1_H1L1 VH G66A (antibody, V domains shown)
VH: QVQLVQSGAEVKKPGASVKVSCKASGYTFTDNWMGWVKQRPGQGLEWIGAIDPSDSFTNYNQNFKARVTMTVDTSISTAYMELSRLRSDDSAVYFCTRSGYYGSPKLGGDYWGQGTLVTVSS
VL: EIVLTQSPSSLSASVGDRVTITCSASSSISYMHWYQQKSGTAPKLLIYSTSNLASGVPSRFSGSGSGTDFTFTISSLQPEDAATYYCHQWNSYPCTFGGGTKLEIK
As to B6, the EC50 in assay [1] stood at 0.373 nM. The Relative binding activity in assay [2] amounted to 1.09.

B7: hGPN06-1_H1L1 VH I51A (antibody, V domains shown)
VH: QVQLVQSGAEVKKPGASVKVSCKASGYTFTDNWMGWVKQRPGQGLEWIGAADPSDSFTNYNQNFKGRVTMTVDTSISTAYMELSRLRSDDSAVYFCTRSGYYGSPKLGGDYWGQGTLVTVSS
VL: EIVLTQSPSSLSASVGDRVTITCSASSSISYMHWYQQKSGTAPKLLIYSTSNLASGVPSRFSGSGSGTDFTFTISSLQPEDAATYYCHQWNSYPCTFGGGTKLEIK
Turning to B7, the EC50 in assay [1] turned out to be 0.993 nM. In addition, the Relative binding activity in assay [2] is 0.89.

B8: hGPN06-1_H1L1 VH F64A (antibody, V domains shown)
VH: QVQLVQSGAEVKKPGASVKVSCKASGYTFTDNWMGWVKQRPGQGLEWIGAIDPSDSFTNYNQNAKGRVTMTVDTSISTAYMELSRLRSDDSAVYFCTRSGYYGSPKLGGDYWGQGTLVTVSS
VL: EIVLTQSPSSLSASVGDRVTITCSASSSISYMHWYQQKSGTAPKLLIYSTSNLASGVPSRFSGSGSGTDFTFTISSLQPEDAATYYCHQWNSYPCTFGGGTKLEIK
B8: in assay [1], the EC50 was determined as 0.448 nM. Moreover, the Relative binding activity in assay [2] was found to be 1.11.

B9: hGPN06-1_H1L1 VH D52A (antibody, V domains shown)
VH: QVQLVQSGAEVKKPGASVKVSCKASGYTFTDNWMGWVKQRPGQGLEWIGAIAPSDSFTNYNQNFKGRVTMTVDTSISTAYMELSRLRSDDSAVYFCTRSGYYGSPKLGGDYWGQGTLVTVSS
VL: EIVLTQSPSSLSASVGDRVTITCSASSSISYMHWYQQKSGTAPKLLIYSTSNLASGVPSRFSGSGSGTDFTFTISSLQPEDAATYYCHQWNSYPCTFGGGTKLEIK
As for B9, the EC50 in assay [1] was 2.79 nM. For the same molecule, the Relative binding activity in assay [2] was found to be 0.51.

B10: hGPN06-1_H1L1 VH G26A (antibody, V domains shown)
VH: QVQLVQSGAEVKKPGASVKVSCKASAYTFTDNWMGWVKQRPGQGLEWIGAIDPSDSFTNYNQNFKGRVTMTVDTSISTAYMELSRLRSDDSAVYFCTRSGYYGSPKLGGDYWGQGTLVTVSS
VL: EIVLTQSPSSLSASVGDRVTITCSASSSISYMHWYQQKSGTAPKLLIYSTSNLASGVPSRFSGSGSGTDFTFTISSLQPEDAATYYCHQWNSYPCTFGGGTKLEIK
As for B10, the EC50 in assay [1] worked out at 1.21 nM. In assay [2], the Relative binding activity is 1.08.

B11: hGPN18-5_H2L2 (antibody, V domains shown)
VH: QVQLVQSGAEVKKPGASVKVSCKASGYTFTTYWMNWVRQAPGQGLEWIGAINPSNDYTEYNQKFKDRATMTADTSTSTVYMELSSLRSEDTAVYYCGRSYSPDYWGQGTTVTVSS
VL: DIQMTQSPSSLSASVGDRVTITCKASQNVDNHVAWFQQKPGKAPKALIYSASYRYSGVPDRFSGSGSGTDFTLTISSLQPEDFATYFCQQYKSYPFTFGGGTKLEIK
notes: humanized; also called hGPN18-5_VH2+VL2
In assay [3], B11 yielded a Kd of 763 nM, a koff of 0.00403 s⁻¹ and a kon of 5280 M⁻¹ s⁻¹.

B12: hGPN18-5_H2L1 (antibody, V domains shown)
VH: QVQLVQSGAEVKKPGASVKVSCKASGYTFTTYWMNWVRQAPGQGLEWIGAINPSNDYTEYNQKFKDRATMTADTSTSTVYMELSSLRSEDTAVYYCGRSYSPDYWGQGTTVTVSS
VL: DIQMTQSPSSLSASVGDRVTITCKASQNVDNHVAWFQQKPGKAPKALIYSASYRYSGVPSRFSGSGSGTDFTLTISSLQPEDFATYFCQQYKSYPFTFGGGTKLEIK
notes: humanized; also called hGPN18-5_VH2+VL1
In assay [3], B12 displayed a Kd of 661 nM, a koff of 0.00454 s⁻¹ and a kon of 6870 M⁻¹ s⁻¹.

B13: hGPN18-5_H3L2 (antibody, V domains shown)
VH: QVQLVQSGAEVKKPGASVKVSCKASGYTFTTYWMNWVRQAPGQGLEWIGAINPSNDYTEYNQKFKDRAIMTADKSTSTVYMELSSLRSEDTAVYYCGRSYSPDYWGQGTTVTVSS
VL: DIQMTQSPSSLSASVGDRVTITCKASQNVDNHVAWFQQKPGKAPKALIYSASYRYSGVPDRFSGSGSGTDFTLTISSLQPEDFATYFCQQYKSYPFTFGGGTKLEIK
notes: humanized; also called hGPN18-5 VH3+VL2
Take B13: in assay [3], the Kd was 548 nM, the koff amounted to 0.00436 s⁻¹ and the kon was determined as 7950 M⁻¹ s⁻¹.

B14: hGPN18-5_H1L2 (antibody, V domains shown)
VH: QVQLVQSGAEVKKPGASVKVSCKASGYTFTTYWMNWVRQAPGQGLEWIGAINPSNDYTEYNQKFKDRVTMTADTSTSTVYMELSSLRSEDTAVYYCGRSYSPDYWGQGTTVTVSS
VL: DIQMTQSPSSLSASVGDRVTITCKASQNVDNHVAWFQQKPGKAPKALIYSASYRYSGVPDRFSGSGSGTDFTLTISSLQPEDFATYFCQQYKSYPFTFGGGTKLEIK
notes: humanized; also called hGPN18-5_VH1+VL2
In the case of B14, in assay [3], binding was put at a Kd of 423 nM, the koff is 0.00396 s⁻¹ and the kon amounted to 9380 M⁻¹ s⁻¹.

B15: hGPN18-5_H2L3 (antibody, V domains shown)
VH: QVQLVQSGAEVKKPGASVKVSCKASGYTFTTYWMNWVRQAPGQGLEWIGAINPSNDYTEYNQKFKDRATMTADTSTSTVYMELSSLRSEDTAVYYCGRSYSPDYWGQGTTVTVSS
VL: DIQMTQSPSSLSASVGDRVTITCKASQNVDNHVAWHQQKPGKAPKALIYSASYRYSGVPDRFTGSGSGTDFTLTISSLQPEDFADYFCQQYKSYPFTFGGGTKLEIK
notes: humanized; also called hGPN18-5_VH2+VL3; GPN18-5-VH2+VL3
With B15, in assay [3], the Kd was found to be 190 nM, the koff was 0.00148 s⁻¹ and the kon worked out at 7780 M⁻¹ s⁻¹.

B16: hGPN18-5_H1L3 (antibody, V domains shown)
VH: QVQLVQSGAEVKKPGASVKVSCKASGYTFTTYWMNWVRQAPGQGLEWIGAINPSNDYTEYNQKFKDRVTMTADTSTSTVYMELSSLRSEDTAVYYCGRSYSPDYWGQGTTVTVSS
VL: DIQMTQSPSSLSASVGDRVTITCKASQNVDNHVAWHQQKPGKAPKALIYSASYRYSGVPDRFTGSGSGTDFTLTISSLQPEDFADYFCQQYKSYPFTFGGGTKLEIK
notes: humanized; also called hGPN18-5_VH1+VL3; GPN18-5-VH1+VL3
In assay [3], B16 came in with a Kd of 214 nM, a koff of 0.00153 s⁻¹ and a kon of 7150 M⁻¹ s⁻¹.

As a reminder, the EC50 is the concentration at which the effect is half-maximal. In general, Kd refers to the equilibrium constant for the complex coming apart. A higher Kd goes with weaker binding. The term koff denotes the rate constant with which the complex falls apart. One may read the kon as the second-order rate constant of association.
